Data as given in US8822645B2, “Prostaglandin E2 dual variable domain immunoglobulins and uses thereof” (AbbVie Inc., priority 2008, dated 2014).

How the values were obtained:
[1] = 3H-PGE2 ELISA (PGE2 binding affinity)
Experimental: Alternatively, prostaglandin binding screen for antibodies or DVD-Ig molecules can be determined using a ^3H-PGE2 ELISA. Plates were coated at 50 μl/well with 5 μg/ml of goat anti-human IgG (Fc) (Thermo Scientific #31170, Hudson, N.H.) or goat anti-mouse IgG (Fc) (Thermo Scientific #31125, Hudson, N.H.) in PBS and incubated overnight at 4° C. The following day plates were flicked and blotted dry. Plates were then blocked with 200 μL/well of Superblock (Thermo Scientific #37515, Hudson, N.H.), for 1 hour at room temperature. Plates were flicked and blotted dry. Monoclonal antibodies were diluted to 0.04 μg/ml in PBST (Abbott Bioresearch Center, Worcester, Mass.)/10% Superblock and 50 uL of each antibody or DVD-Ig was added to each well of the pre-blocked ELISA plate at 2 ng/well and incubated for 1 hour at room temperature. Wells were washed 3 times with PBS+0.1% Tween-20. A serial 3 fold titration of ^3H-PGE2 (Perkin Elmer #NET-428, Waltham, Mass.) was prepared in PBST+10% Superblock. Fifty microliters of the ^3H-PGE2 solution was then added to each well of the plate and incubated for 1 hour at room temperature. Wells were washed 6 times with PBST+10% Superblock and 50 μL of scintillation fluid (Perkin Elmer #6013621, Waltham, Mass.) added to each well. Plates were read using the TopCount reader (Perkin Elmer, Waltham, Mass.) with a 5 minutes count delay. EC50 number was determined using GraphPad Prism 5 (GraphPad Software, La Jolla, Calif.).

[2] = system: PGE2 / human EP4 receptor in HEK293 Gα16 cells; assay: EP4 bioassay (Ca++ flux, neutralization of PGE2); assay type: cell-based; conditions: for IC50: EP4 assay
Experimental: The ability of anti-PGE2 antibodies and anti-PGE2 containing DVD-Ig molecules to inhibit the cellular response of PGE2 was determined in a Ca++ flux assay in HEK293 Gα16 cells stably transfected with human EP4 receptor. Cells were plated in black/clear poly-D-lysine plates, (Corning #3667, Corning, N.Y.) and incubated with Ca++-sensitive dye (Molecular Devices) for 90 minutes. Stock PGE2 (in 200 proof ethanol) was diluted with FLIPR buffer (containing 1×HBSS (Invitrogen, Carlsbad, Calif.), 20 mM HEPES (Invitrogen, Carlsbad, Calif.), 0.1% BSA (Sigma, St. Louis, Mo.) and 2.5 mM Probenecid (Sigma, St. Louis, Mo.)). Anti-PGE2 antibodies, DVD-Ig molecules or isotype matched control antibodies were also pre-diluted in FLIPR buffer. 25 μl of PGE2 or pre-incubated PGE2/antibody mixture or pre-incubated PGE2/DVD-Ig molecule mixture was added to the wells pre-plated with cells. A dose response of PGE2 was done by a serial titration of PGE2 and was determined using FLIPR1 or Tetra (Molecular Devices). EC50 was determined using GraphPad Prism 5 (GraftPad Software, La Jolla, Calif.). […] Ca++ flux was monitored using FLIPR1 and data was analyzed using GraphPad Prism 5.
The ability of anti-PGE2 antibodies and anti-PGE2 containing DVD-Ig molecules to inhibit the cellular response of PGE2 was determined in a Ca++ flux assay using stably transfected human EP4 in HEK293 Gα16 cells. Cells were plated in black/clear Poly-D-Lysine plates, (Corning #3667) and incubated with Ca++-sensitive dye (Molecular Devices) for 90 minutes. Stock PGE2 (in 200 proof ethanol) was diluted with FLIPR buffer (containing 1×HBSS, 20 mM HEPES, 0.1% BSA and 2.5 mM Probenecid). Anti-PGE2 antibodies, DVD-Ig molecules or isotype matched control antibodies were also pre-diluted in FLIPR buffer. 25 μl of PGE2 or pre-incubated PGE2/antibody mixture or pre-incubated PGE2/DVD-Ig molecule mixture was added to the wells pre-plated with cells. A dose response of PGE2 was done by a serial titration of PGE2 and was determined using FLIPR1 or Tetra (Molecular Devices). EC50 was determined using GraphPad Prism 5. […] Ca++ flux was monitored using FLIPR1 and data was analyzed using GraphPad Prism 5.

[3] = PGE2-biotinamide ELISA (PGE2 binding); conditions: PGE2 VD in C-terminal position, read-out: Direct Bind ELISA C-terminal VD EC50
Experimental: (§1) Enzyme linked immunosorbent assays to screen for anti-PGE2 antibodies or anti-PGE2 containing DVD-Ig molecules that bind prostaglandin E2 were performed as follows. ELISA plates (Costar 3369, Corning, N.Y.) were coated with 50 μl of anti-host Fc IgG (Sigma, St. Louis, Mo.) at 2 μg/ml in PBS (Invitrogen Carlsbad, Calif.). Following an overnight incubation at 4° C., the plate was blocked with 200 μl Superblock (Pierce #37535, Rockford, Ill.). The IgG or DVD-Ig containing samples were diluted to 1 μg/ml in Assay Buffer (10% Superblock in PBS containing 0.05% Surfactamps (Pierce #37535, Rockford, Ill.) and incubated on the plate at 50 μl/well for 1 hour at room temperature. Following the incubation, plates were washed four times with TTBS (Tween-Tris Buffered Solution). For PGE2 binding, PGE2-biotinamide (Cayman Chemicals, Ann Arbor, Mich.) was diluted to 30 nM and serially diluted in Assay Buffer. The titration curve was added to each IgG or DVD-Ig sample at a volume of 50 μl/well and incubated for 1 hour at room temperature. The plates were washed as previously described and 50 μl/well of 1:5000 dilution of streptavidin polyhrp40 (Fitzgerald Industries, Concord, Mass.) in Assay Buffer was added and incubated for 45 minutes at room temperature. A final wash step was performed and the plates were developed using a single step TMB system (Sigma #T8665, St. Louis, Mo.) and 2N H2SO4. Plates were read at 450 nm on a Molecular Devices Spectramax plate reader (Sunnyvale, Calif.). EC50 was determined using GraphPad Prism 5 (GraphPad Software, La Jolla, Calif.) (FIG. 2).
as §1, with “ELISA” for “Enzyme linked immunosorbent assays to screen for anti-PGE2 antibodies or anti-PGE2 containing DVD-Ig molecules that bind prostaglandin E2 were performed as follows. ELISA”, “(Invitrogen,” for “(Invitrogen”, “IgG” for “IgG or DVD-Ig”, “Solution).” for “Solution). For PGE2 binding,”, “Calif.).” for “Calif.) (FIG. 2).”

[4] = Size exclusion chromatography, percent monomer of parent antibodies and DVD-Ig constructs; assay type: physicochemical
Experimental: Antibodies were diluted to 2.5 mg/mL with water and […] is analyzed on a Shimadzu HPLC system using a TSK gel G3000 SWXL column (Tosoh Bioscience, cat#k5539-05k). […] The HPLC system operating conditions are the following: […]

target antigen = assay: BIACORE affinity determination of parent antibodies and DVD-Ig constructs; assay type: binding; conditions: antigen IL-15, 25° C.
Experimental: The BIACORE assay (Biacore, Inc, Piscataway, N.J.) determines the affinity of antibodies or DVD-Ig with kinetic measurements of on-rate and off-rate constants. […] All chemicals are obtained from Biacore® AB (Uppsala, Sweden) or otherwise from a different source as described in the text. For example, approximately 5000 RU of goat anti-mouse IgG, (Fcγ), fragment specific polyclonal antibody (Pierce Biotechnology Inc, Rockford, Ill.) diluted in 10 mM sodium acetate (pH 4.5) is directly immobilized across a CM5 research grade biosensor chip using a standard amine coupling kit according to manufacturer's instructions and procedures at 25 μg/ml. Unreacted moieties on the biosensor surface are blocked with ethanolamine. Modified carboxymethyl dextran surface in flowcell 2 and 4 is used as a reaction surface. Unmodified carboxymethyl dextran without goat anti-mouse IgG in flow cell 1 and 3 is used as the reference surface. For kinetic analysis, rate equations derived from the 1:1 Langmuir binding model are fitted simultaneously to association and dissociation phases of all eight injections (using global fit analysis) with the use of Biaevaluation 4.0.1 software. Purified antibodies or DVD-Ig are diluted in HEPES-buffered saline for capture across goat anti-mouse IgG specific reaction surfaces. Antibodies or DVD-Ig to be captured as a ligand (25 μg/ml) are injected over reaction matrices at a flow rate of 5 μl/min. The association and dissociation rate constants, kon (M^−1 s^−1) and koff (s^−1) are determined under a continuous flow rate of 25 μl/min. Rate constants are derived by making kinetic binding measurements at different antigen concentrations ranging from 10-200 nM. The equilibrium dissociation constant (M) of the reaction between antibodies or DVD-Igs and the target antigen is then calculated from the kinetic rate constants by the following formula: KD=koff/kon. Binding is recorded as a function of time and kinetic rate constants are calculated. In this assay, on-rates as fast as 10^6 M^−1 s^−1 and off-rates as slow as 10^−6 s^−1 can be measured.

B1: 2B5-hSL-8C11: anti-murine TNFα/anti-PGE2 DVD-Ig, human short linker, SEQ ID 106/107 (antibody)
heavy: QVQLQQSGPELVRPGSSVKISCKASGYTFTKYWLGWVKQRPGHGLEWIGDIYPGYDYTHYNEKFKDKATLTVDTSSSTAYMQLSSLTSEDSAIYYCARSDGSSTYWGQGTLVTVSAASTKGPEFQLQQSGPELVKPGASVRISCKASGYSFTDYNMNWVKQSNGKSLEWVGVINPNYGSSTYNQKFKGKATLTVDQSSSTAYMQLNSLTSEDSAVYYCARKWGQLGRGFFDVWGTGTTVTVSS
light: DVLMTQTPLSLPVSLGDQASISCTSSQNIVHSNGNTYLEWYLQRPGQSPKLLIYKVSNRFSGVPDRFSGSGSGTVFTLKISRVEAEDLGVYYCFQVSHVPYTFGGGTKLEIKRTVAAPQIVLSQSPAILSASPGEKVTMTCRASSSVSYMHWFQQKPGSSPKPWIYATSNLASGVPARFSGSGSGTSYSLTISRVEAEDAATYYCQQWSSSPLTFGAGTKLELKR
Kd [1]: 0.238 nM
IC50 [2]: 0.02 nM

B2: 2B5-hLL-8C11: anti-murine TNFα/anti-PGE2 DVD-Ig, human long linker, SEQ ID 108/109 (antibody)
heavy: QVQLQQSGPELVRPGSSVKISCKASGYTFTKYWLGWVKQRPGHGLEWIGDIYPGYDYTHYNEKFKDKATLTVDTSSSTAYMQLSSLTSEDSAIYYCARSDGSSTYWGQGTLVTVSAASTKGPSVFPLAPEFQLQQSGPELVKPGASVRISCKASGYSFTDYNMNWVKQSNGKSLEWVGVINPNYGSSTYNQKFKGKATLTVDQSSSTAYMQLNSLTSEDSAVYYCARKWGQLGRGFFDVWGTGTTVTVSS
light: DVLMTQTPLSLPVSLGDQASISCTSSQNIVHSNGNTYLEWYLQRPGQSPKLLIYKVSNRFSGVPDRFSGSGSGTVFTLKISRVEAEDLGVYYCFQVSHVPYTFGGGTKLEIKRTVAAPSVFIFPPQIVLSQSPAILSASPGEKVTMTCRASSSVSYMHWFQQKPGSSPKPWIYATSNLASGVPARFSGSGSGTSYSLTISRVEAEDAATYYCQQWSSSPLTFGAGTKLELKR
Kd [1]: 0.383 nM
IC50 [2]: 0.064 nM

B3: DVD154: DVD-Ig construct listed in Table 4 (antibody)
VH: EVQLVQSGAEVKKPGESLKISCKVSGYFFTTYWIGWVRQMPGKGLEYMGIIYPGDSDTRYSPSFQGQVTISADKSISTAYLQWSSLKASDTAMYYCARGGNWNCFDYWGQGTLVTVSSASTKGPEVQLVQSGAEVKKPGASVKVSCKASGYTFTKYWLGWVRQAPGQGLEWMGDIYPGYDYTHYNEKFKDRVTLTTDTSTSTAYMELRSLRSDDTAVYYCARSDGSSTYWGQGTLVTVSS
VL: EIVLTQSPGTLSLSPGERATLSCRASQSVSSSYLAWYQQKPGQAPRLLIYGASRRATGIPDRFSGSGSGTDFTLTISRLEPEDFAVYYCQRYGSSHTFGQGTKLEISRTVAAPDVLMTQTPLSLPVTPGEPASISCTSSQNIVHSNGNTYLEWYLQKPGQSPQLLIYKVSNRFSGVPDRFSGSGSGTDFTLKISRVEAEDVGVYYCFQVSHVPYTFGGGTKVEIKR
EC50 [3]: 1.54 nM
% Monomer (purity) [4]: 88.7%
EC50 ([2]; PGE2 VD in C-terminal position, EP4 bioassay, Ca++ flux, read-out: C-terminal VD PGE2 Neutralization EC50): 0.029 nM
koff (target antigen): 0.00198 s⁻¹
